The results in this text go back to US20220073608A1 (JIANGSU HUAIYU PHARMACEUTICAL, published 2022).

Residue numbers refer to the chain shown, from its start.

For assay [1], the target named is T1, monkey SEMA4D, full length, on CHO-K1 cells (CHO-K1 cSEMA4D) (monkey).
T1 construct: whole, on cells; also called monkey SEMA4D recombinant cells
The experiment in a line: FACS, CHO-K1 cSEMA4D cells; Ab 66.7 nM. The method, then: (§1) After the cells were counted, they were diluted with PBS to 2×10⁶ cells per milliliter. After washing, 100 μL of diluted and purified leading antibodies was added to each well and the plate was incubated for 1 hour on ice. […] Cells were washed 2 times by centrifugation with FACS buffer. The cells were suspended with 200 μL of FACS buffer, FACS (FACS Verse, purchased from BD) was used to detect and analyze the results.

Assay [2] addresses T2, mouse SEMA4D, full length, on CHO-K1 cells (CHO-K1 mSEMA4D) (mouse, UniProt O09126 24-861).
T2 construct: whole, on cells; also called murine SEMA4D recombinant cells
T2 sequence (looked up): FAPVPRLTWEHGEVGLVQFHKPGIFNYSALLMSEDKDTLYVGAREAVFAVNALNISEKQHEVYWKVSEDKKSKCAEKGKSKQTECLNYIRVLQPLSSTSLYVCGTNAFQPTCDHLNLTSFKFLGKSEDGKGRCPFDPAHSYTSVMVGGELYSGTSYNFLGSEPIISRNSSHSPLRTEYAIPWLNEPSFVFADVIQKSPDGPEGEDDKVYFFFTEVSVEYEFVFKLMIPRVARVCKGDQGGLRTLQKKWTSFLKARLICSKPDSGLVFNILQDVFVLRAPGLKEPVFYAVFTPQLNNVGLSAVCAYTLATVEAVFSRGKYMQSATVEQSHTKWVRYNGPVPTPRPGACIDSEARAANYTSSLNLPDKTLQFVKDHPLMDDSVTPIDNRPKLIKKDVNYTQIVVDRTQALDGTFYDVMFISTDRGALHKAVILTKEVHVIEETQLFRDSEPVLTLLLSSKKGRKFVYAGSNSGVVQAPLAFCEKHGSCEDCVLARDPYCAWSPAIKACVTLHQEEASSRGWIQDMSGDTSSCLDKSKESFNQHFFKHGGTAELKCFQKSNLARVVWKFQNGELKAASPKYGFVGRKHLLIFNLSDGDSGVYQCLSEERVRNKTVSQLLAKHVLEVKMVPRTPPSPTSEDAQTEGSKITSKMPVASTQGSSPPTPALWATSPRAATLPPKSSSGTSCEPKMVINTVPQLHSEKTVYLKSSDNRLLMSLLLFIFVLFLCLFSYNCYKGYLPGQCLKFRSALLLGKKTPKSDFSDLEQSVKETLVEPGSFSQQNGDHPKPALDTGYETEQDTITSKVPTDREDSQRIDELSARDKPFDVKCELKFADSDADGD
The experiment in a line: FACS, CHO-K1 mSEMA4D cells; Ab 2.67 nM. The method, then:
as §1

The target of assay [3] is T2, mouse SEMA4D, full length, on CHO-K1 …. The assay can be described thus: FACS, CHO-K1 mSEMA4D cells; Ab 0.107 nM. Here is the method: as §1
Assay [4] has the same target. The assay can be described thus: FACS, CHO-K1 mSEMA4D cells; Ab 0.000853 nM. Here is the method:
as §1

The target in assay [5] is T3, hSEMA4D ECD-His (His-tagged human SEMA4D protein extracellular domain, Met22-Arg734) (human, UniProt Q92854 22-734).
T3 construct: Expressed in CHO-S cells, purified on Ni column; also called protein immunogen; immunogen A; not shown: His tag of the pCP vector
T3 sequence: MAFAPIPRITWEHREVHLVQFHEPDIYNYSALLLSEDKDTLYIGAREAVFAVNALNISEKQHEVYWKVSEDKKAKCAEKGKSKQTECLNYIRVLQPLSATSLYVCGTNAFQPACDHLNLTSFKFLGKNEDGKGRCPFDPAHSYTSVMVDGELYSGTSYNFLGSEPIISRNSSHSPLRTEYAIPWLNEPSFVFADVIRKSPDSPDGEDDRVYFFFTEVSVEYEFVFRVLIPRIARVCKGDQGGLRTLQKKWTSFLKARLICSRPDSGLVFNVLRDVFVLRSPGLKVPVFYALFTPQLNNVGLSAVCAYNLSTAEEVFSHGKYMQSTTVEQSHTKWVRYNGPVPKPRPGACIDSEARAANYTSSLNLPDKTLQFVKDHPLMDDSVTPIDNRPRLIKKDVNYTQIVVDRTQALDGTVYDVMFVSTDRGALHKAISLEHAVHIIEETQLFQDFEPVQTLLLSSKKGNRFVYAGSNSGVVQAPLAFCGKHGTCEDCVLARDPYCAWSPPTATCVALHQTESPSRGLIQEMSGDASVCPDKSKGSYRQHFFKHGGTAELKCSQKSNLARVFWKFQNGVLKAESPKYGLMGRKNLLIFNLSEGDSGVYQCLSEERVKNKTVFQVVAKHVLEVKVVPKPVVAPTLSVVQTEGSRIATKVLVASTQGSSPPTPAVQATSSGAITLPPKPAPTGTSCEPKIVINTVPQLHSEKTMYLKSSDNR
The assay can be described thus: ELISA, coated hSEMA4D ECD-His; Ab 0.00213 nM. Here is the method: (§2) First, hSEMA4D ECD-His was diluted with PBS to a final concentration of 1.0 μg/mL, and then was added to a 96-well ELISA plate, 100 μL per well, sealed with plastic film and incubated overnight at 4° C. On the next day, the plate was washed with a plate washing solution, that is, PBS buffer containing 0.05% (v/v) Tween20, for 4 times, and added with blocking solution, that is, PBS buffer containing 0.05% (v/v) Tween20 and 2% (w/w) BSA, blocked at 37° C. for 1 hour. The blocking solution was poured out and the plate was washed 4 times with the plate washing solution. 100 μL of the purified leading antibodies obtained in Examples 1 and 2 was added to each well. After incubation at 37° C. for 1 hour, the plate was washed 4 times with a plate washing solution. 100 μL of horseradish peroxidase (HRP) labeled secondary antibody (purchased from Sigma) was added at a dilution of 1:10000 to each well, and the plate was incubated at 37° C. for 1 hour, and washed 4 times with a plate washing solution. 100 μL TMB substrate was added to each well, and the plate was incubated at room temperature for 5 minutes, and added with 100 μL stop solution (1.0N HCl) to each well. A microplate reader (SpectraMax M5e, purchased from Molecular Device) was used to read the A450 nm value. […] Wherein, the data in the table was the OD450 nm value.

Assay [6] deals with T3, hSEMA4D ECD-His (His-tagged human …). The experiment in a line: ELISA, coated hSEMA4D ECD-His; Ab 0.000085 nM. The method, then:
as §2

B1: 42B7G2 (antibody, V domains shown)
VH: QVQLQQSGAELARPGASVKLSCKASGYTFTDYGISWVKQRTGQGLEWIGEIYLRNDNSYYNEKFKGKATLTADKSSNTAYMELRSLTSEDSAVYFCARWGDHGNNYEDAMDYWGQGTSVTVSS
VL: DIVLTQSPASLAMSLGKRATISCRASESVSIIGSNLIHWYQQKPGQPPKLLIYHASNLETGVPARFSGSGSRTDFTLTIDPVEEDDVAIYYCLQSRKVPYTFGGGTKLEIK
notes: Mouse monoclonal antibody purified from hybridoma supernatant on protein A
In the case of B1, the MFI is 2670 in assay [1], 31 in assay [2], 30.4 in assay [3] and 31.1 in assay [4]. In addition, the OD450 nm in assay [5] was 0.11; in assay [6] it was 0.0753.

B2: 37C4F7 (antibody, V domains shown)
VH: EFQLQQSGPEVVKPGASVKISCKASGYSFTDYNMNWMKQSKGKSLEWIGVINPNYGTTTYNQNFKGKATLTVDQSSSTAYMQLNSLTSEDSAVYYCARDMYYVYAYYTMDYWGQGTSVTVSS
VL: DVVMTQTPLSLPVSLGDQASISCRSSQSLVHSNGHTYLHWYLQRPGQSPTLLIYKVSNRFSGVPDRFSGSGSGTDFTLKISRVEAEDLGVYFCSQGTHVPWTFGGGTKLEIK
notes: as for B1
Consider B2, for which the MFI in assay [1] was 2900; in assay [2], 30; in assay [3], 30.1; in assay [4], 30.2. For the same molecule, the OD450 nm was found to be 0.0673 in assay [5] and 0.0661 in assay [6].

B3: 38H2E3 (antibody, V domains shown)
VH: B2 VH with N52S, N54D, G66D, R98K, Q114H
VL: B2 VL with F67V, W101R
notes: as for B1
Turning to B3, the MFI in assay [1] amounted to 2890; in assay [2], 30.7; in assay [3] it was 30.5; in assay [4], 30.1. In addition, the OD450 nm is 0.0738 in assay [5] and 0.0635 in assay [6].

B4: 37F11F9 (antibody, V domains shown)
VH: EVQLQQSGPVLVKPGASVKMSCKASGYTFTDYYMNWVKQSHGKSLEWIGLINPYSGGSTFNQKFKAKATLTVDKSSSSAYMDLNSLTSEDSAVYYCARVGDGYYGVTHGMDYWGQGTSVTVSS
VL: DIVMTPSQKFMSTTVGDRVSITCKASQNVGTAVAWYQQKPGQSPTILIYSASNRYTGVPDRFTGSGSGTDFTLTISNMKSEDLADYFCQQYYIYPFTFAAGTKLELK
notes: as for B1
B4: the MFI in assay [1] stood at 2520; in assay [2], 30.6; in assay [3], 29.7; in assay [4], 29.7. In addition, the OD450 nm in assay [5] stood at 0.0929; in assay [6] it was 0.0658.

B5: 32C8F10 (antibody, V domains shown)
VH: EVQLQQSGAELVRPGASVKLSCTASGFNIKDEYIHWVKQRPEQGLEWIGWIDPANGHTEYASRFQAKATITADTSSNTAYLQLSSLTSEDTAVYYCTTGDYDGFAYWGQGTLVTVST
VL: QIVLTQSPAIMSASPGEKVTISCSARSSVSYMYWYQQKPGSSPKPWIYRTSNLASGVPARFSGSGSGTSYSLTISSMEAEDAATYYCQHYHTYPYTFGGGTKLEIK
notes: as for B1
With B5, the MFI in assay [1] was 5780; in assay [2] it was 30.7; in assay [3], 30.2; in assay [4] it was 30.4. Moreover, the OD450 nm in assay [5] was found to be 0.0858; in assay [6], 0.0699.

B6: 31G10C5 (antibody, V domains shown)
VH: B5 VH with E32D, T58I, R63N, A105T
VL: B5 VL
notes: as for B1
On to B6, for which the MFI in assay [1] is 4600; in assay [2], 30.1; in assay [3] it was 29.6; in assay [4], 30.1. The OD450 nm in assay [5] was 0.109; in assay [6], 0.0694.

B7: 31C11G2 (antibody, V domains shown)
VH: B5 VH with A105V
VL: B5 VL with S22F
notes: as for B1
Regarding B7, the MFI in assay [1] turned out to be 4370; in assay [2] it was 30.5; in assay [3], 30.6; in assay [4] it was 30.9. The OD450 nm in assay [5] was determined as 0.141; in assay [6], 0.0753.
